The source of these data is paper PMC4161027 (2014).

The target of the experiment is F-actin (polymerized rabbit muscle G-actin) (Oryctolagus cuniculus (Rabbit), UniProt P68135). In words: F-actin co-sedimentation.

B1: GST-tagged ENTH domain of rat epsin 1 (protein)
chain: MSTSSLRRQMKNIVHNYSEAEIKVREATSNDPWGPSSSLMSEIADLTYNVVAFSEIMSMIWKRLNDHGKNWRHVYKAMTLMEYLIKTGSERVSQQCKENMYAVQTLKDFQYVDRDGKDQGVNVREKAKQLVALLRDEDRLREER
For B1, the binding result is reported as “no binding”.
